# Measured values as given in the DeepSol protein solubility set.
# Assay: soluble on expression in E. coli; label from the status in PepcDB or PDB records
row,Sequence,soluble on expression in E. coli
1,MLILVSPAKTLDFEQPPLTQIHTRPDFLAQSQELIQVCQQLTPSDIATLMKVSDSIAGLNAARFGEWKPDYSIDNAKQAIFAFRGDVYTGFDADTLTAAQLERTQSQLRILSGLYGLLRPLDLILPYRLEMGTALTNQKGKNLYEFWGNTLTDAVNSAVAAQGDGIIINLASNEYFKAIKPKFLNGQLITPVFKDFKNGQYKVISFFAKRARGMMARYIIDQQVSSIDGLKAFEVDGYYYSEELSKPNEPTFLREAQ,soluble
2,MSLSQANRVFITGRSALTASGATADETWNAIISGQCGIDEINFWELSEWSHRLGGEIKDFQPSKMLPDRKLIKVISRQDIMGINAAVQAVEHSKMIAYRDSLADADLFNEQTAIYVGSPGNKYFQQYDFIPLLAKTHGDMRSFANQLFDEVHPMWLLRILPNNVLAYTGITYGFKGPNHNVTNHAVGGTQAILEAYHAIRSGQAERAVVVAYDIGTEPQGLFYYEKLGVVSNRHLKPFDKEHDGTILAEGAAALVLESEASVKSRAATCYGEIVGGLSASEATGLFSIEADGQHLASLMGQTLSTSGINSEEIGLIVTHGNGNSKSDDSEALAIKSVFKQEEVPATAFKWSMGHTLCASGVLDAVLTTYALETKCVPGIANFQQIAPTCEGLSVSREHREIISNSYAMMINRGFASMNVCLVIKACEEGHHHHHH,not soluble
3,MLEEYRKHVAERAAEGIAPKPLDANQMAALVELLKNPPAGEEEFLLDLLTNRVPPGVDEAAYVKAGFLAAIAKGEAKSPLLTPEKAIELLGTMQGGYNIHPLIDALDDAKLAPIAAKALSHTLLMFDNFYDVEEKAKAGNEYAKQVMQSWADAEWFLNRPALAEKLTVTVFKVTGETNTDDLSPAPDAWSRPDIPLHALAMLKNAREGIEPDQPGVVGPIKQIEALQQKGFPLAYVGDVVGTGSSRKSATNSVLWFMGDDIPHVPNKRGGGLCLGGKIAPIFFNTMEDAGALPIEVDVSNLNMGDVIDVYPYKGEVRNHETGELLATFELKTDVLIDEVRAGGRIPLIIGRGLTTKAREALGLPHSDVFRQAKDVAESDRGFSLAQKMVGRACGVKGIRPGAYCEPKMTSVGSQDTTGPMTRDELKDLACLGFSADLVMQSFCHTAAYPKPVDVNTHHTLPDFIMNRGGVSLRPGDGVIHSWLNRMLLPDTVGTGGDSHTRFPIGISFPAGSGLVAFAAATGVMPLDMPESVLVRFKGKMQPGITLRDLVHAIPLYAIKQGLLTVEKKGKKNIFSGRILEIEGLPDLKVEQAFELTDASAERSAAGCTIKLNKEPIIEYLNSNIVLLKWMIAEGYGDRRTLERRIQGMEKWLANPELLEADADAEYAAVIDIDLADIKEPILCAPNDPDDARPLSAVQGEKIDEVFIGSCMTNIGHFRAAGKLLDAHKGQLPTRLWVAPPTRMDAAQLTEEGYYSVFGKSGARIEIPGCSLCMGNQARVADGATVVSTSTRNFPNRLGTGANVFLASAELAAVAALIGKLPTPEEYQTYVAQVDKTAVDTYRYLNFNQLSQYTEKADGVIFQTAV,soluble
4,MSLKIKALLLDIDGTMVFKGHAIPGAAEAIEAARMAGLQLRFLTNITGQLPSTIAEDLQRHGINVRAEEIHTASTSCARYLKSLGDVSCFFLMPESVNSMFEGIARDHVSPDVVVIGDIGESFDYACLNQAFGYLHKGARLVVPHKNLFWFDPRGVRLDCGAFILGLEAASGKQALVTGKPSPVFFTSVMDSLGVKPSQTMIIGDDLLTDIAAAQHLEVAHALVLTGKGASYTESDVPRPERLWPSIAELSRFLAQSGHNTEGHHHHHH,soluble
5,MTLDLFAPQPKTNLLPYDGDVEDYGCFISTAEAEQYFQYFLKHLAWRHDEARLYGKHFITPRQVAWYGDDHYRYAYSGIMRDSLPWDPQLLILKQQIEQTLAERFNSCLANLYQEGTQGMAWHSDGDMSLAKQTTIASLSLGATRKFCFRHLRTKEKIEMQLQSGQLIVMRGETQQHWQHAIMKSQKVIHPRINLTFRQFLLLEHHHHHH,not soluble
6,GMDISLLKQVVQSTNKIALSTAVNNEADVKIVNFVWYEAQPDTLYFSSVKTSPALKVYDQNPDIAFITIPNDGTAGNPYLRAQHVKLQRSTKTMTDLLPQYLETVPNYQQVWDAIGSTLVVFELKLTDLFVDAGVGGEKQTLTFN,soluble
7,GSMVENSELRKAGLKVTLPRVKILQMLDSAEQRHMSAEDVYKALMEAGEDVGLATVYRVLTQFEAAGLVVRHNFDGGHAVFELADSGHHDHMVCVDTGEVIEFMDAEIEKRQKEIVRERGFELVDHNLVLYVRKKK,soluble
8,MGSDKIHHHHHHMSEEPRYLAVDVGGTNLKYALINRSGQMIKKSRMETPHEGLTQFLEAIEKISDKLKGQLNGVAFSTPGRVDTTTDTIYCRNSTLPYLNEVCLPRKLQKLGLPISVENDGKSAALAESWLGNLNDVKNGMAIVLGTCVGGGIMLDGHLWAGSRRLAGEVSLMPADQTNLADDGLFGKTGSAVRMIEAVNTVIGASCLTDGHCAFAAINAGQAQATQIFRQYAREVAALILNVQTVLDLDRYVIGGGISFQPILIDEINRQYDWILERRPWVKSTIARPEILSSRFHNDANLYGALYRLFNKLDAKHDVPIDLDNLLVNAGR,not soluble
9,GMCINRQILNAVTASNRKKNTPLNTYVSFDEPVNPEDDSQVKLVDVLKSDKEQNPERLFIDQENAESLEDKLYSVLSGFEKNVLELYMSGKDYIAIAQTLDKPPKSIDNAIQRIRNKVDKITNL,not soluble
10,MRVITVAGPPSVGKTSVVVKTATTLAAQGHRLGIVKFDSLSTSDDQVYRRAGLPVVVGLSGNVCPDHFFVSNIDDCVDWGRTHGVDILVAESAGLCNRCSPHVQGVQAICVVDNLSGVHTPRKIGPMLKLADVVVITKGDIVSQAEREVFAYNVRLANPRAQVMQFHGITGQGASDLAARMLCAPVVDALEGRRLRFSMPSAVCPYCIGETAIGVDHQRGNVRKMSFAEPARLEHHHHHH,soluble
11,MGSDKIHHHHHHMSEAPHLTFDLDTPGVSTGHLVVPKGADCEALSLPVFSCNRGEGPSLLITGGNHGNELQGPILARRLVKWLPEAQRCGRIIIVPEINPLAVQAWTRNTPIDGKNLNRVFPGRSDGSVSERIADAISRLLLPVVDTVLDLHSFGPTWDCAPSIISHPIADIDQMTKTVSISKAFKLPVTLLWEHNETDGMFDTLVHRQGKTFICTEFGGGVVSAEALTIYEAGVRNGLIALGLVKGKAEYPTFRQQKTGQTLETTSSDQLKSPSPGIFEPRCSVMDEVEQGDVVGVLHPMGSLSAASIDIRAQSKSTVFAIRSAMYVQGNEEVAILARPLAR,not soluble
12,DRLTVVKQYVDNVLNKASDTYHGDKPSPLLADGVDPRTGQQLEWIFPDGRRAVLSNFSAQQNLMRVMSGLSQLSGDPRYQKRAEDIVRYHFQNYQDPSGLLYWGGHRFVDLKTLQPEGPSEKEMVHELKNAYPYYDLMFSVDSDATARFIRGFWNAHVYDWRILETSRHGEYGKPMGALWESKFEQQPPFFATKGLSFLNAGNDLIYSASLLYKHQQDQGALTWAKRLADQYVLPRDAKTGLGVYQFTQALKREEPTDDADTHSKFGDRAQRQFGPEFGPTALEGNMMLKGRTSTLYSENALMQLQLGKDLGPQGQDLLKWTVDGLKAFAKYAYNDQDNTFRPMIANGQDLSNYTLPRDGYYGKKGTVLKPYKAGNEFLISYARAYAIDNDPLLWKVARGIANDQGLGDIGTAPGKEVKVNMDTTNSDPYALFALLDLYHASQVADYRKLAEKIGDNIIKIRYIDGFFMASSDRQYADVDAIEPYALLALEASLRNKPQAVAPFLNGAGFTEGAYRMDDGSARVSTRDNELFLLNVGEKLQPN,soluble
13,MSELHFMSLEELDNELEKDDSGIYFIKDYNDNIIYIGKAFSIKSRVLAHFNSYSNIKEYVHLFNKVAYLIEDSLLKRSLLQVTYMIKYKPVLNKEVQKEFPELYTQYIKQTNKKSMLLEIEEAKEKRDELKNRLVKLVGGKTMFYDIISLLNNGYNYHVLAKVLSIELQTLIIMKEHRNKFPMPHNYKRTIKHQDIMYALSGKKNLSTSRLNT,soluble
14,MGHHHHHHSHRASRKICFVCKKKGAAINCQKDQCLRNFHLPCGQERGCLSQFFGEYKSFCDKHRPTQNIQHGHVGEESCILCCEDLSQQSVENIQSPCCSQAIYHRKCIQKYAHTSAKHFFKCPQCNNRKEFPQEMLRMGIHIPDR,not soluble
15,AKEKDTIRTEGVVTEALPNATFRVKLDSGPEILAYISGKMRMHYIRILPGDRVVVEITPYDPTRGRIVYRK,soluble
16,PFEGNATEVFTDGYSMLYSLMKEISKAKHHIHLQFYIFEDDPAGRLLRDLLIDKARQGVEVRLLYDDVGCWKVPHAFFDEMRGAGIEARSFLKVRFPLFTSKVNYRNHRKIVVIDGRVAYTGGMNIALRYMKGFPWGIWRDTHIKIEGKAVYGLQTAFLTDWYVVDRTLITSSRYFPEVGIFGKALIQIVTSDP,not soluble
17,MSLDVPAMPERVETQGVEFVEFSTAPEEKANLEVLLATLGFEKSAQHRNRAVDLYTQGDIRIVINTSDDGDSFAGASYSIHGTNAYAFGLKVDDAQAALARAEALGAPTFAEPRNTGEVAVPAIQGVGNGVIYFLDASPALASIWDKEFVPTQGQKAMSDAGLTRVDHLAQTTHYDEMLTWLLFYTSLFSSRRTPMIDVVDPGGLVRSQAIESVPAANFRLTMNGADNRKTFAGKFLAEGFGSSIQHIAFATDDIFATAKAMQARGFHALPISRNYYDDLEARFGLEPEFSDALREASILYDRDDSGEYFQIYSRTFGEGFFFEVIERRGAYGGYGAMNAPFRIAAQRRLAEGHHHHHH,soluble
18,MSLSIFSHFQERFEATRQEEYSLQEYLDLCKQDKTAYASAAERLLMAIGEPELLDTSVDSRLSRIFSNKVIRRYPAFADFHGMEECIDQIVAFFRHAAQGLEEKKQILYLLGPVGGGKSSLAEKLKQLMEKVPFYAIKGSPVFESPLGLFNPDEDGAILEEDYGIPRRYLRSIMSPWATKRLNEFGGDISQFRVVKLYPSILNQIAIAKTEPGDENNQDISALVGKVDIRKLEEYPQNDADAYSYSGALCRANQGLMEFVEMFKAPIKVLHPLLTATQEGNYNSTEGLGALPYSGIILAHSNESEWHSFRNNKNNEAFIDRIYIVKVPYCLRVADEIKIYDKLLVNSSLAHAHCAPDTLKMLSQFSVLSRLKEPENSNIYSKMRVYDGENLKDTDPKAKSIQEYRDSAGVDEGMAGLSTRFAFKILSKVFNFDPHEVAANPVHLLYVLEQQIEQEQFQPETRERYLRFIKEYLAPRYVEFIGKEIQTAYLESYSEYGQNIFDRYVLYADFWIQDQEYRDPETGEILNRAALNEELEKIEKPAGISNEGHHHHHH,not soluble
19,SDPEISEQDEEKKKYTSVCVGREEDIRKSERMTAVVHDREVVIFYHKGEYHAMDIRCYHSGGPLHLGEIEDFNGQSCIVCPWHKYKITLATGEGLYQSINPKDPSAKPKWCSKGVKQRIHTVKVDNGNIYVTLSKEPFKCDSDYYATGEFKVIQSSS,soluble
20,MGSDKIHHHHHHMTNLNYCRPLSLTTNRCLMNKELETLILSAVDLPTIPLVATKVIEMIEQEDVTIEKIAQTVSADPAVAARILKLSNSAYYGCQRQINTLSGAIMLLGFRTLKSLVVAASLKQICKRFGLTEKMLWEHAVGAAIAARIISANGKFINEETAFLAGLFHDIGKTIMNDLDPSKFQQVMMRCYNEGLPFEEVERSIYSFSHAEVGALVIRKWNFPEALSTAVMNHHDFPNPTLTDQYDLFLTATTCLADKFCKKLGIGERHPDEELDLAKTQEAHLLGYTPETILRDVDQFAQTFEENKSFFIND,not soluble
21,MGSDKIHHHHHHMQLRALMYFDELVRTNSMRAAAENLNVAPTAVSRQIENLEYYFGSPLVERSSRGVKLTAAGELLAARAGKTLRELDHVHRLIDDLKGLQRGRVTVYANGATVANLLAPVLAQFSLKYPKLRFEVHITSARQAMEALGAAEADLVVSLFAPKLSGVKVRSRTRISYDVIFPAGHALAAQPEVSLKELAGMPLALPDKSFAARQAFDTLFADAGIELDPVFITSSLEMLKELVLGNAAATLLPALSVAREIRSGQMVAVPLAGKKGIHTQIDLCVAPDRQLSFAASKLADFIERFMREATAG,not soluble
